PMC7783346

Test system: His6-KfrA G38A (plasmid RA3 (IncU; Aeromonas hydrophila in Fig S1/S3))
Test: EMSA
Conditions: EMSA: 50 mM Tris-HCl pH 8.0, 10 mM MgCl2, 50 mM NaCl, 37 C, 30 min, 10 nM EcoRI-NdeI-digested plasmid DNA (vector fragment as internal competitor), 20 ul …

**Q.** With “WT OK (kfrAp), EcoRI-NdeI fragment of pESB2.68” as the substance, how does the K half read?
**A.** 260 nM
